Test results from patent US20060292689A1.

Molecular target: CCR-2 (human) (UniProt P41597)
Experiment: cell-based or functional assay

CCR-2 (human), sequence (P41597 whole entry): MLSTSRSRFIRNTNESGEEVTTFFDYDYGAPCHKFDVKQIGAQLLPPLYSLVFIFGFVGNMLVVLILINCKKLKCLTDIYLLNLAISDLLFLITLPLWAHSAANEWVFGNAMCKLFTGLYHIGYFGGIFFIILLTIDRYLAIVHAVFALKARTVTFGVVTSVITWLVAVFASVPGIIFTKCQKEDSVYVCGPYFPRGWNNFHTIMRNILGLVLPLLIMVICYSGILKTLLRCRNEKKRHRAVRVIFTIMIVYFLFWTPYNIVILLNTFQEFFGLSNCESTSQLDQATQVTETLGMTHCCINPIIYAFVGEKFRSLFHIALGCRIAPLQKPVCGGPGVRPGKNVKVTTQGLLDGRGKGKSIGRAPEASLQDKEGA

## MCP-1 (from UniProt P13500 24-99) (ligand)
  mean fluorescence intensity of CaR expression on monocytes: 673 units
